This note sets out measurements from article PMC7953435 (Cell host & microbe, 2021).

The test deals with N-terminal domain of SARS-CoV-2 spike (NTD, residues 1–330) (SARS-CoV-2, UniProt P0DTC2). The test can be described thus: crystal structure.

B1: antibody 2–51 Fab (Fab, V domains shown)
VH: QVQLVQSGAEVKKPGASVKVSCKVSGYTLIELSMHWVRQAPGKGLEWMGGFDPEDVETIYAQQFQGRVTMTEDTSTDTAYMELSSLRSEDTAVYYCATGWAYKSTWYFGYWGQGTLVTVSS
VL: QSALTQPPSASGSPGQSVTISCTGTSSDVGGYNYVSWYQQHPGKAPKLMIYEVSKRPSGVPDRFSGSKSGNTASLTVSGLQAEDEADYYCSSYAGSRMGFGGGTKLTVL
Regarding B1, the binding result is “binds”.
